“And” between values parts separate entries of the source, which are not always exact repeats. Equal entries are not always repeated.
B1: anti-STAT3 antibody ST3G12 (unmodified) (antibody, V domains shown)
VH: QVQLVQSGAEVKKPGASVKVSCKASGYTFTSYYMHWVRQAPGQGLEWMGIINPSGGSTSYAQKFQGRVTMTRDTSTSTVYMELSSLRSEDTAVYYCARSDYVHSFDIWGQGTMVTVSS
VL: QPVLTQPPSASALLGASIKLTCTLSSEHSTYTVEWYQQRPGRSPQYIMNVKSDGSYNKGDGIPDRFMGSSSGADRYLTFSNLQSDDEAEYHCGESHRIDGQVGVVFGGGTKLTVL
notes: also called naked anti-STAT3 ST3G12 antibody
B2: compound 901a (ST3G12 conjugated to the phosphorothioate oligonucleotide, non-fluorescein version) (antibody, V domains shown)
VH: B1 VH
VL: B1 VL
modifications: phosphorothioate oligonucleotide joined to the antibody through a linker; residue(s) and chain of attachment not stated
notes: also called ST3G12-PS
B3: anti-STAT3 antibody ST1A5 (antibody, V domains shown)
VH: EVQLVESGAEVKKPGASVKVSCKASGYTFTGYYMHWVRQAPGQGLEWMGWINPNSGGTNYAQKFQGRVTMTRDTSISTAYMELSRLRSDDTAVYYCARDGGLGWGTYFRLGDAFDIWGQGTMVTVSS
VL: QSVLTQPPSVSKGLRQTATLTCTGNSNNVGNEGAAWLQQHQGHPPKLLSYRNFNRPSGISERFSASRSGNTASLTITGLQPEDEADYYCSAWDSSLSAWVFGGGTKLTVL
notes: Human antibody; it was detected with anti-human IgG

Assays:
[1] = target: T1, recombinant human STAT3 proteins (human, UniProt P40763 1-770, limits assumed); assay: 'Binding ELISA, Hu-IgO Detection' (sheet title, 01052015), Superblock as blocking buffer; coated antigen not named, taken as STAT3 by analogy with the title of FIG. 10; OD 450 nm; the EC50 row has no unit, x axis in ng/ml
T1 construct: It may be the same STAT3-GST as in the Biacore assay

[2] = target: T2, Recombinant human STAT3-GST (human, UniProt P40763 1-770); assay: SPR (Biacore T200), antibody captured on anti-human Fc, STAT3-GST as analyte, 1:1 model
T2 construct: The order of STAT3 and GST follows the printed name 'STAT3-GST' only; not shown: GST (glutathione S-transferase) tag
Experimental: Anti-human Fc antibody (GE, BR-1008-39) was immobilized on a CMS sensor chip to approximately 1000 RU using standard NHS/EDC coupling methodology. Antibodies (approximately 10 ug/ml) were captured for 60 seconds at a flow rate of 10 ul/min Recombinant human STAT3-GST was serially diluted 2-fold into running buffer (HBS-EP+, starting from […]). All measurements were conducted at a flow rate of 30 ul/min Surfaces were regenerated with 3M MgCl₂ (from human antibody kit) for 60 seconds. A 1:1 (Langmuir) binding model was used to fit the data.

[3] = target: T1, recombinant human STAT3 proteins; assay: STAT3 binding ELISA, Hu-IgG-FAB detection (sheet title; legend paragraph 22 says 'to human IgG'); OD 450 nm; the EC50 column has no unit, x axis in ng/ml
[4] = target: T1, recombinant human STAT3 proteins; assay: binding ELISA with Superblock as blocking buffer; coated antigen not named on the sheet (legend paragraph 30 says 'to human IgG'), taken as STAT3 by analogy with the title of FIG. 10; OD 450 nm; the EC50 row has no unit, x axis in ng/ml
[5] = target: T3, STAT3 in fixed or permeabilized human tumour cells (U251 glioblastoma); MDA-MB-468 / MDA-MB-435 breast cancer … (human, UniProt P40763 2-770); assay: flow cytometry on fixed, methanol-permeabilized U251 cells; PE anti-human IgG; MFI (FL-2)
T3 construct: whole, on cells; STAT3 is intracellular and the cells were permeabilized; also called cellular antigens; cellular targets
Experimental: (§1) Next, the binding of the candidate anti-STAT3 antibodies to cellular targets was tested in cell binding assays using MDA-MB-435 breast cancer cells and U251 cells. The cells were seeded overnight in a 96 well plate, then fixed with PFA and permeabilized with methanol. Cells were incubated with serial dilutions of the anti-STAT3 antibody candidates ST1A5, ST3G12 and ST5G12 for one hour and 30 minutes. Following incubation, the cells were washed and incubated for 30 minutes with phycoerythrin (PE) conjugated anti-human IgG. Fluorescence was measured on an Intellicyte high-throughput flow cytometry analyzer. […] Bevacizumab (Avastin), a monoclonal antibody that inhibits vascular endothelial growth factor A (VEGF-A) was used as a negative control. As shown in FIG. 8A and FIG. 8B, the anti-STAT3 antibodies ST5G12 and ST3G12 both bound STAT3, with ST5G12 being an especially strong binder.

[6] = target: T3, STAT3 in fixed or permeabilized human …; assay: flow cytometry (HTFC) on permeabilized U251 cells; PE anti-human IgG; MFI
Experimental: After 45 minutes at room temperature, cells were washed twice and incubated with phycoerythrin (PE) conjugated-anti-human IgG for 20 minutes at room temperature in the dark. Cells were then washed and analyzed by high throughput flow cytometry (HTFC). The results are shown in FIG. 9 for assessment of antibody binding to cellular antigens in U251 cells.

[7] = target: GST protein (UniProt P08515 1-218 = GST); assay: SPR (Biacore T200), antibody captured on anti-human Fc
[8] = target: T1, recombinant human STAT3 proteins; assay: ELISA on recombinant human STAT3 (sheet title 'STAT 3 binding'); Abs 450
[9] = target: T1, recombinant human STAT3 proteins; assay: binding ELISA with Superblock as blocking buffer; second column of the table taken as the curve labelled 901a (only two curves, two columns); coated antigen not named on the sheet, taken as STAT3; the EC50 row has no unit, x axis in ng/ml
[10] = target: T1, recombinant human STAT3 proteins; assay: 'Binding ELISA, Hu-IgO Detection' (sheet title), Superblock as blocking buffer; second column of the table taken as the curve labelled 901a; coated antigen not named, taken as STAT3; the EC50 row has no unit, x axis in ng/ml
[11] = target: T3, STAT3 in fixed or permeabilized human …; assay: flow cytometry on fixed, methanol-permeabilized MDA-MB-468 cells (sheet title; legend paragraph 19 says MDA-MB-435); PE anti-human IgG; MFI (FL-2)
Experimental: as §1

T3 sequence (P40763 2-770): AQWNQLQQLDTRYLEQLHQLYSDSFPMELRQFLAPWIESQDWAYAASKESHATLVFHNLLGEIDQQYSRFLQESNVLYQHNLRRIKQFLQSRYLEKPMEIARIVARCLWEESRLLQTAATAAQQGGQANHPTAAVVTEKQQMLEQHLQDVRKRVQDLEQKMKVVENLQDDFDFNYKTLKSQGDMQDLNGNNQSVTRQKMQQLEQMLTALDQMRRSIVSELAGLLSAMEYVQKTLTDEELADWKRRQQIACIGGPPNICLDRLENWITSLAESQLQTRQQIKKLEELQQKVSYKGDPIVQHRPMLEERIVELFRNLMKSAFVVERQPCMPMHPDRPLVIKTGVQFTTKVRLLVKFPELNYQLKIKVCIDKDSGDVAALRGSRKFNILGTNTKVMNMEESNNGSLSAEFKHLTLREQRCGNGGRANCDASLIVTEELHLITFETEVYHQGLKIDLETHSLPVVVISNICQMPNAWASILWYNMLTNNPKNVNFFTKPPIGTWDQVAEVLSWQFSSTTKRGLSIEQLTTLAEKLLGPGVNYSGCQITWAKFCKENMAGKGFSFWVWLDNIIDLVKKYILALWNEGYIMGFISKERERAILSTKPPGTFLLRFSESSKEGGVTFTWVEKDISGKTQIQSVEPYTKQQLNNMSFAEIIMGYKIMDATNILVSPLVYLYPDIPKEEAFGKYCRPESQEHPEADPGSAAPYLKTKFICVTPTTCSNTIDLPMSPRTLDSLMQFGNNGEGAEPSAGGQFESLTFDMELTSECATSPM
T1 sequence (P40763 whole entry): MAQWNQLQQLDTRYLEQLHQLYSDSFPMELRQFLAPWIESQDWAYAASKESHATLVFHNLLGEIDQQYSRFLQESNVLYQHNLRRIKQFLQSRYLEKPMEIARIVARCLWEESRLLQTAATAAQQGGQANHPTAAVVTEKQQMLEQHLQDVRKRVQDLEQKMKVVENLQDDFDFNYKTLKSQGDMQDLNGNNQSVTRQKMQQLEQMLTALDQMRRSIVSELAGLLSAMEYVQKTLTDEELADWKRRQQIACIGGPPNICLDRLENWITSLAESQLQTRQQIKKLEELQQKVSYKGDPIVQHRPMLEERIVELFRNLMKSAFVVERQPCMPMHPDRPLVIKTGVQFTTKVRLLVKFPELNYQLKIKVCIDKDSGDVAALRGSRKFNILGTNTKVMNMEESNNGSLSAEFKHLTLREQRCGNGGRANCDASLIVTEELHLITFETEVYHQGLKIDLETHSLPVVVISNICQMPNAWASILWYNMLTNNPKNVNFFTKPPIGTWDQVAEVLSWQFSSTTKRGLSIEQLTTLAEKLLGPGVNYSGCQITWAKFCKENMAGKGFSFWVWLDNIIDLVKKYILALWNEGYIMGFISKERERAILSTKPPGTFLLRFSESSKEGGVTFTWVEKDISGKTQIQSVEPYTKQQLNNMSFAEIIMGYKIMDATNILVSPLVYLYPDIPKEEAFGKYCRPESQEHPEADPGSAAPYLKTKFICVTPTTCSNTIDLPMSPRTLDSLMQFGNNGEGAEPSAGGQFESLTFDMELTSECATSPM
T2 sequence (P40763 whole entry): as above
GST protein, sequence (P08515 whole entry): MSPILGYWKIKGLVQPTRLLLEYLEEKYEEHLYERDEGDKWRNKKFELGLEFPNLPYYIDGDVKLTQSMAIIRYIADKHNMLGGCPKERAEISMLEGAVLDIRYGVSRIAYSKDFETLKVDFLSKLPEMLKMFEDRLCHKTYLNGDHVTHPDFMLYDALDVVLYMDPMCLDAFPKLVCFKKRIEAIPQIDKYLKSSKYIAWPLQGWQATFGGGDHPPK

EC50 [1] | Kd [2] | koff [2] | kon [2] | EC50 [3] | EC50 [4] | EC50 (read off the curve) [5] | EC50 (read off the curve) [6] | binding result [7] | EC50 (read off the curve) [8] | EC50 [9] | EC50 [10] | EC50 (read off the curve) [11] | Binder
0.0257 µg/mL | 5.39 nM | 0.000322 s⁻¹ | 59700 M⁻¹ s⁻¹ | 0.155 µg/mL | 0.122 µg/mL | ~4 nM | ~9 nM | no binding | ~0.06 µg/mL |  |  |  | B1
 | 0.222 nM | 0.00011 s⁻¹ | 494000 M⁻¹ s⁻¹ | 0.153 µg/mL |  |  |  | no binding | ~0.06 µg/mL and ~0.1 µg/mL | 0.186 µg/mL | 0.0643 µg/mL |  | B2
 |  |  |  |  |  | ~8 nM |  |  |  |  |  | ~6 nM | B3

Source: patent US20170107289A1 (SORRENTO THERAPEUTICS, published 2017)
